Measured values reported in article PMC5332220 (Biochemistry, 2016).

Legend:
SspB_milli [1] = molecular target: T1, SspB_milli (UniProt P45206 1-150, A58V); experiment: fluorescence polarisation
SspB_milli [2] = molecular target: T1, SspB_milli; experiment: fluorescence polarisation; remark: listed apart in the source

B1: improved Light Inducible Dimer (iLID) (designed binder)
chain: MRGSHHHHHHGSLATTLERIEKNFVITDPRLPDNPIIFASDSFLQLTEYSREEILGRNCRFLQGPETDRATVRKIRDAIDNQTEVTVQLINYTKSGKKFWNVFHLQPMRDYKGDVQYFIGVQLDGTERLHGAAEREAVCLIKKTAFQIAEAANDENYF
modifications: flavin mononucleotide (FMN) cofactor; in the lit state a metastable covalent bond of FMN with Cys450
**Q.** With B1 as the binder, how does the Kd (SspB_milli [1]) read?
**A.** 56 ± 6 µM

**Q.** What about the “fold weaker than the lit state” value (SspB_milli [2]) of the same binder?
**A.** ≥ 25 fold
